Values quoted from earlier work in patent US9422609B2, “Methods, compositions and devices for maintaining chemical balance of chlorinated water” (priority 2006, dated 2016).

Conditions: hydrolysis of cyanuric acid

B1: cyanuric acid amidohydrolase from strain ADP of Pseudomonas sp.: cyanuric acid amidohydrolase (EC 3.5.2.15) from strain ADP of Pseudomonas sp. (protein, UniProt P58329 1-363, looked up)
Cyanuric acid amidohydrolase: MYHIDVFRIPCHSPGDTSGLEDLIETGRVAPADIVAVMGKTEGNGCVNDYTREYATAMLAACLGRHLQLPPHEVEKRVAFVMSGGTEGVLSPHHTVFARRPAIDAHRPAGKRLTLGIAFTRDFLPEEIGRHAQITETAGAVKRAMRDAGIASIDDLHFVQVKCPLLTPAKIASARSRGCAPVTTDTYESMGYSRGASALGIALATEEVPSSMLVDESVLNDWSLSSSLASASAGIELEHNVVIAIGMSEQATSELVIAHGVMSDAIDAASVRRTIESLGIRSDDEMDRIVNVFAKAEASPDGVVRGMRHTMLSDSDINSTRHARAVTGAAIASVVGHGMVYVSGGAEHQGPAGGGPFAVIARA
For B1, the Km is listed as 71 µM, the Vmax is listed as 8.4 µmol/min/mg and the turnover rate is listed as 3 reactions per second.
